This is an account of results in paper PMC8044140 (Communications Biology, 2021).

Series [1] deals with PefR (porphyrin-regulated efflux regulator) from Streptococcus agalactiae, non-His-tagged (Streptococcus agalactiae). Nature of the series: SEC; gel filtration of holo-PefR (heme-bound). On the technique in general: SEC sorts molecules by how far they enter the pores of the column.
Series [2] has the same target. The series can be described thus: SEC; gel filtration of purified apo-PefR (heme-free); single peak, estimated ~35 kDa against ca. 17 kDa for the monomer.
In series [3] the target is T1, PefR (holo-PefR, ferrous heme-bound) (Streptococcus agalactiae, UniProt R4Z9I5).
T1 construct: gene AX245_08385; recombinant holo-PefR, homodimer
T1 sequence (R4Z9I5 1-146): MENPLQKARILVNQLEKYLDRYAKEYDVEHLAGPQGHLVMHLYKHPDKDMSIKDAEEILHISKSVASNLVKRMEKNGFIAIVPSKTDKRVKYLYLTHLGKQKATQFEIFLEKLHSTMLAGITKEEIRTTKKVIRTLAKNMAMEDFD
Format: binding.

Series [4] concerns the target T2, PefR (porphyrin-regulated efflux regulator) (Streptococcus agalactiae, UniProt R4Z9I5).
T2 construct: gene AX245_08385; recombinant PefR, C-terminal His tag removed with HRV3C protease; homodimer, two hemes per dimer
T2 sequence (R4Z9I5 1-146): T1 sequence (R4Z9I5 1-146)
The series can be described thus: biochemical. Format: binding.

The target in another series is PefR H114A (Streptococcus agalactiae, UniProt Q8E4J9 1-146, H114A). Nature of the series: fluorescence polarization; apo (heme-free); 1:1 dimer:dsDNA; EMSA: 20 mM Tris-HCl pH 7.4, 50 mM KCl, 5% glycerol, 0.2 M MgCl2, room temperature; FP: 40 mM HEPES/Na pH 7.4, 500 mM NaCl, 10% glycerol, 10 nM DNA, room temperature. Particulars: protein: recombinant; tags: C-terminal HRV3C site-6xHis, removed; chain copies: 2; label: 5'-FAM on antisense strand; blunt. Background: Fluorescence polarisation rises when a labelled molecule tumbles more slowly, as on binding a larger partner.

Series [5] concerns the target T3, PefR (Streptococcus agalactiae, UniProt Q8E4J9 1-146).
T3 sequence: T1 sequence (R4Z9I5 1-146)
Nature of the series: fluorescence polarization; apo (heme-free); 1:1 dimer:dsDNA; 500 mM NaCl; EMSA: 20 mM Tris-HCl pH 7.4, 50 mM KCl, 5% glycerol, 0.2 M MgCl2, room temperature; FP: 40 mM HEPES/Na pH 7.4, 500 mM NaCl, 10% glycerol, 10 nM DNA, room temperature. The conditions noted are these: protein: recombinant; tags: C-terminal HRV3C site-6xHis, His tag removed by HRV3C protease (site remnant remains); chain copies: 2; label: 5'-FAM on antisense strand; blunt.

Series [6] has as its target T3, PefR. The series can be described thus: EMSA; apo (heme-free); EMSA: 20 mM Tris-HCl pH 7.4, 50 mM KCl, 5% glycerol, 0.2 M MgCl2, room temperature; FP: 40 mM HEPES/Na pH 7.4, 500 mM NaCl, 10% glycerol, 10 nM DNA, room temperature. Particulars: protein: recombinant; tags: C-terminal HRV3C site-6xHis, His tag removed by HRV3C protease (site remnant remains); chain copies: 2; label: 5'-FAM on antisense strand; blunt.

A further series concerns the target PefR R89A (Streptococcus agalactiae, UniProt Q8E4J9 1-146, R89A). Nature of the series: EMSA; apo; 1:1 dimer:DNA, 5 uM; EMSA: 20 mM Tris-HCl pH 7.4, 50 mM KCl, 5% glycerol, 0.2 M MgCl2, room temperature; FP: 40 mM HEPES/Na pH 7.4, 500 mM NaCl, 10% glycerol, 10 nM DNA, room temperature. Particulars: protein: recombinant; tags: C-terminal HRV3C site-6xHis, removed; chain copies: 2; label: 5'-FAM on antisense strand; blunt. (A gel shift assay detects complexes by their altered migration in electrophoresis.)

The next series has as its target PefR K63A (Streptococcus agalactiae, UniProt Q8E4J9 1-146, K63A). Nature of the series: EMSA; apo; 1:1 dimer:DNA, 5 uM; similar to WT; EMSA: 20 mM Tris-HCl pH 7.4, 50 mM KCl, 5% glycerol, 0.2 M MgCl2, room temperature; FP: 40 mM HEPES/Na pH 7.4, 500 mM NaCl, 10% glycerol, 10 nM DNA, room temperature. Particulars: protein: recombinant; tags: C-terminal HRV3C site-6xHis, removed; chain copies: 2; label: 5'-FAM on antisense strand; blunt.

A further series concerns the target PefR S62A (Streptococcus agalactiae, UniProt Q8E4J9 1-146, S62A). The description is as above. The conditions noted are these: protein: recombinant; tags: C-terminal HRV3C site-6xHis, removed; chain copies: 2; label: 5'-FAM on antisense strand; blunt.
In another series the target is PefR K53A (Streptococcus agalactiae, UniProt Q8E4J9 1-146, K53A). Described as above. Particulars: protein: recombinant; tags: C-terminal HRV3C site-6xHis, removed; chain copies: 2; label: 5'-FAM on antisense strand; blunt.
The next series has as its target PefR S67A (Streptococcus agalactiae, UniProt Q8E4J9 1-146, S67A). The description is as above. The conditions noted are these: protein: recombinant; tags: C-terminal HRV3C site-6xHis, removed; chain copies: 2; label: 5'-FAM on antisense strand; blunt.
For a further series, the target named is PefR K75A (Streptococcus agalactiae, UniProt Q8E4J9 1-146, K75A). The description is as above. The conditions noted are these: protein: recombinant; tags: C-terminal HRV3C site-6xHis, removed; chain copies: 2; label: 5'-FAM on antisense strand; blunt.
For series [7], the target named is T3, PefR. Nature of the series: X-ray crystallography; apo (heme-free), 2.5 A; EMSA: 20 mM Tris-HCl pH 7.4, 50 mM KCl, 5% glycerol, 0.2 M MgCl2, room temperature; FP: 40 mM HEPES/Na pH 7.4, 500 mM NaCl, 10% glycerol, 10 nM DNA, room temperature. The conditions noted are these: protein: recombinant; tags: C-terminal HRV3C site-6xHis, His tag removed by HRV3C protease (site remnant remains); chain copies: 2; blunt.

As to “PefR (porphyrin-regulated efflux regulator) from Streptococcus agalactiae, non-His-tagged (natural protein)”, the stoichiometry N in series [1] and in series [2] was 2 throughout.

Consider `[C-]#[O+]` [carbon monoxide], for which, in [3], the Kd was 0.11 and 0.033 μM.

In series [4], `C=CC1=C(C)C2=Cc3c(C=C)c(C)c4[n]3[Fe][n]3c(c(C)c(CCC(=O)O)c3=CC3=NC(=C4)C(C)=C3CCC(=O)O)=CC1=N2` [heme] registered a Kd of 610 nM.

B1: pefAB operator 38 bp (dsDNA)
DNA 1: GCTATTATAAAATAGTTCTCACGATAACTAAAATAATG
DNA 2: CATTATTTTAGTTATCGTGAGAACTATTTTATAATAGC
As to B1, the Kd with PefR H114A is ~25 nM; with PefR [5], 40 nM.

B2: nontarget DNA (dsDNA)
DNA 1: GTTTTAAAACGACCTCTGTAGCGGTCGTTAAAGG
DNA 2: CCTTTAACGACCGCTACAGAGGTCGTTTTAAAAC
Take B2: in the series with PefR [6], the binding result is “no binding”.

B3: pefRCD operator 28 bp (EMSA) (dsDNA)
DNA 1: TAAAATAGTTCTCACGATAACTATTAAA
DNA 2: TTTAATAGTTATCGTGAGAACTATTTTA
Consider B3, for which the binding result with PefR [6] is on record as “binds”.

B4: target DNA (operon not stated) (dsDNA)
DNA 1: TAAAATAGTTCTCACGATAACTATTAAA
DNA 2: TTTAATAGTTATCGTGAGAACTATTTTA
In the case of B4, the binding result with PefR R89A is “no binding”; with PefR K63A it was “binds”; with PefR S62A, “binds”; with PefR K53A it was “binds”; with PefR S67A it was “binds”; with PefR K75A, “binds”.

B5: pefRCD operator for crystal (dsDNA)
DNA 1: TAAAATAGTTCTCACGATAACTATTAAAT
DNA 2: ATTTAATAGTTATCGTGAGAACTATTTTA
For the molecule B5, the binding result with PefR [7] was “binds”.
